# Literature values as cited in PMC6719960.
# Molecular target: claudin-4 (UniProt O14493)
# Chain of UniProt O14493 (O14493 whole entry): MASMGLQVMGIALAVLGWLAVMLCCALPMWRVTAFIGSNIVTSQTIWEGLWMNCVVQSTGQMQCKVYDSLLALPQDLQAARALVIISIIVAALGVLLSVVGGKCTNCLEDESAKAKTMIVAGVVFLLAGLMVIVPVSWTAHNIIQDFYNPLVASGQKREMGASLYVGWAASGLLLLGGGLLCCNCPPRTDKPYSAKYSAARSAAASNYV
substance,measurement,value
C-CPE C-terminal fragment (from UniProt P01558),Kd,0.5 nM
